Measured values published in paper PMC4216083.

Biological target: Toll-like receptor 4 (human (endogenous in monocyte-derived DCs)) (UniProt O00206)
Sequence of UniProt O00206 (O00206 24-839): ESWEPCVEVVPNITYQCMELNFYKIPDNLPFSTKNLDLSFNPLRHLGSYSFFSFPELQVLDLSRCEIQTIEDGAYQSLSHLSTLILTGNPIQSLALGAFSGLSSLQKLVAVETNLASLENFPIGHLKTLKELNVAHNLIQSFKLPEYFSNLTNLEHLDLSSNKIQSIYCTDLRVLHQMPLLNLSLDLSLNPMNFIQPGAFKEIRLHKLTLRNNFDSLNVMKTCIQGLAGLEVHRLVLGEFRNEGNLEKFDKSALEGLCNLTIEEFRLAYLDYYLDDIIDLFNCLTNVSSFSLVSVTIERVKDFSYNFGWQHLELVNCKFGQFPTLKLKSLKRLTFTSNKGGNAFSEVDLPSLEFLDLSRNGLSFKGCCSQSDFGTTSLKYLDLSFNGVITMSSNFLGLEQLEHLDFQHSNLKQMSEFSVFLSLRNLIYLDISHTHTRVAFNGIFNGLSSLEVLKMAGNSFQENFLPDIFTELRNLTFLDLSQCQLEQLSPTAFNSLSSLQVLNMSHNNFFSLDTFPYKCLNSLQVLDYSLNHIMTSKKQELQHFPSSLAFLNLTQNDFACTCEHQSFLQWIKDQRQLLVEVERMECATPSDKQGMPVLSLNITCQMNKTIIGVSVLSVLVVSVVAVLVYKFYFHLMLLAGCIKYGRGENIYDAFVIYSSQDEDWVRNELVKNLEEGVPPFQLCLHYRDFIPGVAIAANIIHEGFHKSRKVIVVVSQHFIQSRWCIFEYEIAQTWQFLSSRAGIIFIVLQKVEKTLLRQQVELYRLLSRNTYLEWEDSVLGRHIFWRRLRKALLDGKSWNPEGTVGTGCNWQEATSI

“Enterovirus 71 virus-like particles (complex)” was tested, and the decrease of EV71 VLP (10 µg/mL)-induced IL-10 production by human DCs after pre-incubation with anti-TLR4 mAb (HTA125, 20 µg/mL), ELISA was 41%, the decrease of EV71 VLP (10 µg/mL)-induced IL-12 p40 production by human DCs after pre-incubation with anti-TLR4 mAb (HTA125, 20 µg/mL), ELISA was 48% and the decrease of EV71 VLP (10 µg/mL)-induced IL-12 p70 production by human DCs after pre-incubation with anti-TLR4 mAb (HTA125, 20 µg/mL), ELISA was 68%.
